Patent US20120178697A9

Target: PDZ domain (residues 247 through 341) of mouse Dvl-1 (mouse) (UniProt P51141)
Assay: method not stated; called 'experimental data', at 25° C

Kd: 10 µM
Substance: Dapper peptide
